One molecule from publication PMC2691592, “Caenorhabditis elegans Protein Arginine Methyltransferase PRMT-5 Negatively Regulates DNA Damage-Induced Apoptosis” (PLoS Genetics, 2009) can be followed below.

The target of this assay is T1, PRMT-5His6 (C. elegans, UniProt P46580 1-734).
T1 construct: C. elegans protein arginine methyltransferase PRMT-5, open reading frame C34E10.5, a protein of 734 amino acids; cDNA of prmt-5 cloned into pET21a; also called purified PRMT-5His6 protein; recombinant PRMT-5
The assay is described as follows: pull-down; GST-CEP-1 or GST immobilised on glutathione sepharose beads, incubated with purified PRMT-5His6 for more than 2 h; bound PRMT-5His6 detected by immunoblot with anti-PRMT-5 antibody. Particulars: both partners purified. In general terms: A western blot detects proteins with antibodies after separation by electrophoresis.

T1 sequence (P46580 whole entry): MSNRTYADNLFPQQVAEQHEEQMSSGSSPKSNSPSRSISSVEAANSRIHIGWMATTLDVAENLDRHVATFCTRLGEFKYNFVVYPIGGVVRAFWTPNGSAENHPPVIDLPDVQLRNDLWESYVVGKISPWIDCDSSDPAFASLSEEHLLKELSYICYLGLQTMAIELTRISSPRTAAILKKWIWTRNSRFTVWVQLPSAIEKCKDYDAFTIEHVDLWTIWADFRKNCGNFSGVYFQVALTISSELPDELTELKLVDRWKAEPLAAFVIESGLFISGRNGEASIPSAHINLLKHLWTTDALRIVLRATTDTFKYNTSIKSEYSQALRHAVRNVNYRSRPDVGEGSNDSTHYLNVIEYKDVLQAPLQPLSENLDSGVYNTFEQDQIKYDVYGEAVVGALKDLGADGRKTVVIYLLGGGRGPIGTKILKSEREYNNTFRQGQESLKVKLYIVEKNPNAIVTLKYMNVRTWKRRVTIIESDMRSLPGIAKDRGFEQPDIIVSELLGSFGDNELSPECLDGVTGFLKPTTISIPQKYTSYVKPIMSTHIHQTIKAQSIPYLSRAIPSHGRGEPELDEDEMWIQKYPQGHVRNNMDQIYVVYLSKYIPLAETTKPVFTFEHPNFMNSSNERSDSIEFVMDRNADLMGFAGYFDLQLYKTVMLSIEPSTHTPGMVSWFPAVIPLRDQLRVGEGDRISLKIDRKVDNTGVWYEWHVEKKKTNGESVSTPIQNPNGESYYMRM

B1: GST-CEP-1 (natural protein, C. elegans, UniProt Q20646 1-644, looked up)
chain: MEPDDSQLSDILKDARIPDSQDIGVNLTQNLSFDTVQKMIDGVFTPIFSQGTEDSLEKDILKTPGISTIYNGILGNGEETKKRTPKISDAFEPDLNTSGDVFDSDKSEDGLMNDESYLSNTTLSQVVLDSQKYEYLRVRTEEEQQLVIEKRARERFIRKSMKIAEETALSYENDGSRELSETMTQKVTQMDFTETNVPFDGNDESSNLAVRVQSDMNLNEDCEKWMEIDVLKQKVAKSSDMAFAISSEHEKYLWTKMGCLVPIQVKWKLDKRHFNSNLSLRIRFVKYDKKENVEYAIRNPRSDVMKCRSHTEREQHFPFDSFFYIRNSEHEFSYSAEKGSTFTLIMYPGAVQANFDIIFMCQEKCLDLDDRRKTMCLAVFLDDENGNEILHAYIKQVRIVAYPRRDWKNFCEREDAKQKDFRFPELPAYKKASLESINIKQEVNLENMFNVTNTTAQMEPSTSYSSPSNSNNRKRFLNECDSPNNDYTMMHRTPPVTGYASRLHGCVPPIETEHENCQSPSMKRSRCTNYSFRTLTLSTAEYTKVVEFLAREAKVPRYTWVPTQVVSHILPTEGLERFLTAIKAGHDSVLFNANGIYTMGDMIREFEKHNDIFERIGIDSSKLSKYYEAFLSFYRIQEAMKLPK
notes: C. elegans p53 homolog CEP-1; called the full-length GST-CEP-1 fusion protein; pGEX vectors put GST at the N-terminus; also called GST-CEP-1 fusion protein; full-length GST-CEP-1
In the case of B1, the binding result is reported as “binds”.
